Results reported in a protein production outcome set (Wang et al. 2014).

Assay: label from the status in PepcDB records
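Further: failed if final PepcDB status was selected cloned or expressed and not failed if soluble or beyond.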

| Sequence | protein production |
| --- | --- |
| MGIHAKLETVQLPLLVSCLFPPLTMPAKDVQICPIAVDTTVFRSRTWDRLKFEIEYGLQRGTTANSYLISADKIALFDPPGESFTDNFVGTLIQRLDLNSLDYVILGHVNANRAHTLKLLLSLAPQATIICSNPAAQNLEKLLADAEVNNPIQVMKGNDHLDLGRGHELTFIPTPSPRYPGQLCTYDPRTEILFTDKLFGAHVCGDQVFDEGWTIYQEDRRYYFDCLLAPAAAQVSAALNKLEAYPAQTYAPSHGPLVRYGLRELTRNYQQWLSEQQAQALNVALIYASAYGNTSTLAQAIARGITKAGVAVTAINAETSNAEEIKEAIGKSAGFIFGSPTLGGHAPTPIQTALGITLANASKTQLCGVFGSFGWSGEAIDMLENKFRDAGFSFGFDTIRVKFKPTDQTLKMCEEAGTDFAQALKKAEKRRQPKSALPESESARTEQALGRLVGSLCVVTAQQGELSSAMLASWVSQATFSPPGLTVAVAKERAIESLLHKNSCFVLNILQEGNHLGLMKHFLKPFAPGGDRFADVATETAENGAPILTESLAYLECRVQQRLECGDHWVLYAVTDRGALLKDGVTAVHHRKSGDHY | failed |
| MGIRVKRRQHQHLLESLVHSTAKQQGDFTKTAELATELLCQNLAVSLVSIWIFSADQGTQSLVAQFGSMALQDTYRPSLLHTVPRYLNELKNYRHIDAGNTLIDPRLTELVDSYFIPRQILSSLDVGIRINGHLEGVLCIERAQVTHHWHDSEIHLACQMADQLALTLATKHAYLEHHHHHH | failed |
| MGISNIKQLYSKWKSLQPLKPEDLKRWNDKFKLEFNYNSNHLEGNTLTYGQTKLLLMFGETSGNASLKDYEEMKAHNVGLEMIKQEAQDKERPLTESFIRELNRTILVQDYWKNAKTPDGQDIRMQIKVGEYKSRPNSVLTATGEVFSYASPEETPAFMTSLVDWYNLEADKGILTPVELAALLHYRYIRIHPFEDGNGRIARLLVNFVLHRYGYPMIVIHSEDKSNYLNILHQCDVEAGLTPSDGANATLNDILPFVNYLSSCLIRSLTLAIKAAKGESIEEEGDFDKK | not failed |
| MGITDGVVVDLGGGTTGISILEKGKVIFVADEPTGGTHMTLVLAGSYGIDFETAEDIKTDKKKEKEVFVQITPVLQKMAAIVKKYIKDYKVKDVFLVGGACSFDGSESIFERELGLNIYKLEHHHHHH | failed |
| MGITITDELLWAILKDELSDAEANALVWQALGYVWDEAQSCWKTDLVAPEWRQDYPEPPDFIASRPATVKLTRSIPAPYKQLLKEELGFAGYSINELVPRKTRRATMTNWLLAYRRSQQD | not failed |
| MGITRKYIANLKDLPTRVQDENDCTSEPFTKPRLCCKMVNKIRNTLVSTETFLQKENITLDTYKRIIRDLVIHLDRVTTKVFVNSLPYNVMDDLGLQECEAFVLKWSEELRKLQSEYRNHLDQISNIERLRRSLNVCLKTREDQIQKVQKEFQWFINILKSLPKSSVCQDGFARIELLNLYRQWKKGQLISMLPIMDFIMKTLLKEKDSILKRKLQPKSA | failed |
| MGKALLIVNPSSGKEKGKTYQGKTEEVLKKRYDEVEVRLTEKAGDATEFASWASEQGFDAVIAMGGDGTLNETINGLAIHEKRPDFGFIPLGTVNDLARSVGIPLKPEKAIQALEKAKAIPMDIGRIGDQYFMNVLAIGMIAQAVDQVSVEQKTKFGSVAYFLEGLKAFNRNELLHFKLEYDEEVWEGEAALVVAGLTKSVGGMESWAPDAKIDDGYLHVVVLTKLGLLDAANMIPQLIRGNLKNSDGVVYIKTKKLTIDASGDDLSINVDGDPGPGVPAEIEVLGSHLNILAPKKSSQKRFGPFILKK | failed |
| MGKDFKSLVTRCIYVGKMNDNAKKLKIATEELKDLGNNVMKRVKLCEEQQQMKRLDKVQTWLRQADTVIKEAEEYFLMSSSSSSSGLISSSHKMEKKICKKLKEVQEIKSRGMFEVVAESTGGIGGGAGGGLTIKDSDEQTIGLEAVSGLVWRCLTMENTGIIGLYGVEGVGKTTVLTQVNNRLLQQKANGFDFVLWVFVSKNLNLQKIQDTIREKIGFLDRTWTSKSEEEKAAKIFEILSKRRFALFLDDVWEKVDLVKAGVPPPDAQNRSKIVFTTCSEEVCKEMSAQTKIKVEKLAWERAWDLFKKNVGEDTIKSHPDIAKVAQEVAARCDGLPLALVTIGRAMASKKTPQEWRDALYILSNSPPNFSGQIS | failed |
| MGKDLAECYLGLGSTFRTLGEYRKAEAVLANGVKQFPNHQALRVFYAMVLYNLGRYEQGVELLLKIIAETSDDETIQSYKQAILFYADKLLEHHHHHH | failed |
| MGKENSKVVVLDFWASPYAMRTKVALREKGVEFEVQEEDLWNKSELLLKSNPVHKKVPVLIHNNTPISESLIQVQYIDETWTDAASFLPSDPQSRATARFWADYADKTISFEGGRKIWGNKKGEEQEKGKKEFLESLKVLEAELGDKSYFGGETFGYVDITLVPFYSWFYALEKCGDFSVEAECPKIVAWGKRCVERNSVAATLPESEKVYQQVLKLRQIFGVE | failed |
| MGKGVAFFSGGKDGLYALYLAEEMGIEVPYLLVLKTSIGLSPHWENLDALKTLAKVMEREILTFDMRRGSKALAEFISSLDVDYLIAGDVYLEDHILWVKSLAEEANVKPLEPLWGRNTRKLAEEMLREGFNWAIIAVDKRKLGKEWLGYTFRSIEDLENFLRANPNVDPLGEVGEFHTVVLNSPLFALNFELKVESIEEDERYWWLRFELREVEKWNLNS | failed |
| MGKNIPSSLDLYPIIHNYLQEDDEILDIGCGSGKISLELASLGYSVTGIDINSEAIRLAETAARSPGLNQKTGGKAEFKVENASSLSFHDSSFDFAVMQAFLTSVPDPKERSRIIKEVFRVLKPGAYLYLVEFGQNWHLKLYRKRYLHDFPITKEEGSFLARDPETGETEFIAHHFTEKELVFLLTDCRFEIDYFRVKELETRTGNKILGFVIIAQKLLEHHHHHH | not failed |
| MGKRRFQKAKETSSVAEASSPTESQATRRRRGRPRKNLENPEDFKKEESEEDEDYEEYEDEEEEDEEAEVVINREKLKKKVRSSSGSMEKEQKMKHEELEEEEKPEMTVKVVVPPPSSRRSRRKSTPVKSW | failed |
| MGKYFFSETEIKNSWDLVLTAFWQRYPNPFSSHVLTEDVLFRKVTSENLLVSRRLFTKTNRLPRWAERIFPGRRSVYIIEDSVVDLSNRSLTTMTWNVNHAKLMRVVERCVFTGEQDRPVWTHITRQAWISSGVFGLSRPIQEFGLARFRSNQLKAMKGMEHAISNLQKASSSCHGESAEKPKNVNPAAKNAQKPQQYI | failed |
| MGLFAKITTASDPRTARIAGILLMLLAMLAFSFADAAGKTVVAIYSVGQLLVLRALAGLLVLSPLIWRQRKAFLQLERPGLQLARTLIAACEVAVFYLATAYLPLADVITFYLASSLFVSVGAALFLGETIDRPRGIAIVVGFVGVLIALQPSTQTMSWPALIAILASVLFAGLLLLTRFLRQTPDMVLASQQFAGTLLLGLVLAPSGWITPSATDLVWFAISGAVSAVGLLCVNRSLRLAPASVVVPYQYTMIIFAAAFGWLLFGDVPSRATVAGVAIIIAAGLYLGWRERSTSRPPVGG | failed |
| MGLGVACSSSQPPGSTTEANGPAVSSGPSLFLLHTTPADGLVLHDARTDESRTLAAGATAKPARAVSPSGRHLAFSYATADSSHLTLLDLTTQQAHRVHAAAGTSVAYSLAWHPNQERLAVGYYRPTDDGGRGPGGLQVVTPDGTTRDVGCSSVREVLHWLPDGSLAARTDDNLYVVDAGDCATQASLDIRRMHHLRYAPTGQQMAYIYRELEYDRDRGEYVPDSSFVLSGPDGTNPETLFGNERHARHHRWAPETNEVALDVRVEASGHRQVVVYDGSRPTFLVSPDQTTADQVHPRWSPSGNRIAFTLRSDASSQAAVRVKGQTRRLGRVDGAVWGWLDDRSVVVPGPDSVRVKALNGTTRYAHPTPQTLLHVWRRSAS | failed |
| MGLIYKVADQDWEFERIHKLNYKTFVEEIPQHEETKDRVRIDRFHDENTYLICLDEDKLVGMVALRGKRPFSLDYKISNLDFYLQEHGENVYEIRLLSVEREYRNGRALLGLIRFLHRYLLLNGYELALISATTRELPLYEQMGFKSFHTL | failed |
| MGLLGIVIALGAMIWLAFRGWSILIIAPAAALLAAATAGEPLLAHWTQTFMGTAAGFVAQFFPLFLLGALFGKLMDDSGSVTAIAEWMTRVLGPQRAMLAVVLAGALLTYGGVSLFVAFFVLAPMAHALFRAADIPPRLMPAAIVLGTSTFTMSALPGTPAIQNAIPMPFFSTTPFAAPGLGIVASAIMLTFGLWWLSQRENAARRRGEGYAIAEEEASPDEVAERPLIRELASTAREFDPAEALQGSRSDEPPAAFIALLPLAVVIVVNLLMSFVVLPRVDADYLGLPEWGATTLQAVSGVWSVIVALTAAILCLIALNFRRLPELRDSMGAGAHAAALPVLSVASLVGFGAVVASLPGFGVVRDWVLSIEGGPLVSLAVATNVLSALTGSASGGLTIALDALGGTYLTRAFDLGIDPAILHRVAVMSAGTLDTLPHNGAVVTLLAVCGATHRESYGGIVMVGIVGPMLALAAVIALGSWVGSF | failed |
| MGLPSSLESYLLLILLSFLNVSTIYSSKPSKEEAVLFGGNFPAFYVIGDSLVDPGNNNHLPTMIRANYPPYGSDFEGGKATGRFSNGKTIADYIAIYYKLPLVPAYLGLSDDRKDTISTGMNYASAGCGIRRLTGKIAGKCLSLSKQVDLFEETIEKHLKTNFKTPYELREHLAHSLFMTVIGVNDYAFFYTRLTDANDFADELLHKFLKKIEKLHKLGARKFFINNIKPLGCYPNIVAKTVPRGSRRTYKPCYKHLQRKA | failed |
| MGLSSLPGPSEGMLCVILVNTALSISIVKGIVRSFLGIVGISLSPSSSSPSSVTVSSENSSTSESFDFRVCQPESYLEEFRNRTPTLRFESLCRCKKQADNECSVCLSKFQGDSEINKLKCGHLFHKTCLEKWIDYWNITCPLCRTPLVVVPEDHQLSSNVW | failed |
| MGLTEQKQKHMEQLSDKNGIISALAFDQRGALKRLMAKYQSEEPTVSQIEALKVLVAEELTPYASSMLLDPEYGLPATKVLDDNAGLLLAYEKTGYDTSSTKRLPDCLDIWSAKRIKEEGADAVKFLLYYDVDSSDEVNEEKEAYIERIGSECVAEDIPFFLEILSYDEKITDSSGIEYAKIKPRKVIEAMKVFSNPRFNIDVLKVEVPVNMDYVEGFAQGETAYNKATAAAYFREQDQATLLPYIFLSAGVPAQLFQETLVFAKEAGAKFNGVLCGRATWAGSVKEYVEKGEAGARQWLRTIGFQNIDELNKILQKTATSWKER | not failed |
| MGLVGLHSGTIDMEFIGVEDHGDEEGKQIAVSVISSGKNADKTEDPDSLIFTGFGGTDMYHGQPCNQKLERLNIPLEAAFRKKSIVRVVRCMKDEKRTNGNIYIYDGTYMITNRWEEEGQNGFIVFKFKLVREPDQKPAFGIWKSIQNWRNGLSIRPGLILEDLSNGAENLKVCLVNEVDKENGPALFRYVTSLIHEVINNIPSMVDRCACGRRSCGSKHVFREKLSVSSSLVISAKKSGNVARFMNHSCSPNVFWQSIAREQNGLWCLYIGFFAMKHIPPLTELRYDYGKSRGGGKKMCLCRTKKCCGSFG | failed |
| MGMLTDVALKALKPKEKIYKIADRDGIYVRVMPSGAISFRLDYRLNGRRETIYLGRYGRDGISLALAREKCLDAKRAIGEGRSPAIEKQRDKRRLKEAKSFGEFGEKWLTAAPMADSTRAMRRAIFERELLPVWRNRLLTEITPDDLRTHCGAIVERGAPATAIHVRDILKQIYGFAILHGEKVANPADEVGPASIATFVPKDRSLSPSEIRVMLKQLEHVATIPTIRLGMRLYLLTMVRKSELQDAVWDEVDFENAVWTIPKERMKRSKAHNVYLSRQALDIMIALKTCAGNSRYLLPSRYDADAPMSRATFNRITYAVVERAKANGLPLEPFTVHDLRRTGSTLLNELGFNSDWIEKCLAHEDGRSSRGVYNKAEYEVQRRHMMQEWSDIVDAWVGGKKHVPTLIPPSMPILAPDPAL | failed |
| MGNHKAALTKQVFTFASELYAYGVREVVISPGSRSTPLALAFEAHPNIKTWIHPDERSAAFFAVGLIKGSERPVAILCTSGTAAANYTPAIAESQISRIPLIVLTSDRPHELRSVGAPQAINQVNMFNNYVSYEFDMPIADDSKETINAIYYQMQIASQYLYGPHKGPIHFNLPFRDPLTPDLNATELLTSEMKILPHY | failed |
